Here are results for two substances from publication PMC12802913.

One series has as its system CHD4 PHD1-2 (human). The series is described as follows: pull-down (GST), qPCR. The conditions noted are these: Pull-down: 25 mM HEPES pH 7.4, 150 mM NaCl, 0.5 mM TCEP, 4 C overnight, 50 nM nucleosome; NMR at 0 and 100 mM NaCl (buffer not in material).
Series [1] deals with GST fusion of CHD4 PHD1-2 (aa 364-506) (human) (UniProt Q14839). The series is described as follows: pull-down; GST-PHD1 or GST-PHD1-2 pre-bound to glutathione magnetic agarose beads; 100 ul of 50 nM nucleosome, 4°C overnight; 25 mM HEPES pH 7.4, 150 mM NaCl, 0.5 mM TCEP; bound nucleosome quantified by qPCR of the 601 DNA, normalised to input. Background: Real-time PCR tracks product formation cycle by cycle.
Sequence of UniProt Q14839 (Q14839 364-506): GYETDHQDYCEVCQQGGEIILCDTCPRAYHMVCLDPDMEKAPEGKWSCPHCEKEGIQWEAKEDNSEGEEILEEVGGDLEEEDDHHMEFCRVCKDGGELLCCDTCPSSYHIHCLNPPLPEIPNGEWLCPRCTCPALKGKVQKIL

In turn, H3.3 G33R nucleosome, 601 DNA returned a binding signal (fold vs WT nucleosome) in the series on CHD4 PHD1-2 (human) above 2.
For “([H3.3G33R]) nucleosome core particle (from UniProt P84243 1-136; P62805 1-103; P0C0S8 1-130; P62807 1-126) (complex)”, in series [1], the fold increase of pull-down over WT nucleosome was above 2 fold.
